Substrate in data set [1]: CC(=O)[C@@H](O)[C@H](O)COP(=O)(O)O
The data set is described as follows: purified protein. It counts as biochemical, Acinetobacter baumannii. The conditions noted are these: NADPH, Mg2+.

Substrate in data set [2]: CC(=O)[C@@H](O)[C@H](O)COP(=O)(O)O
The data set is described as follows: purified protein. Type of data set: biochemical, Klebsiella pneumoniae. The following applies: NADPH, Mg2+.

B1: 1-deoxy-D-xylulose 5-phosphate reductoisomerase (AbIspC) (Acinetobacter baumannii AB307-0294) (protein)
chain: MTQSVCILGVTGSIGRSTLKILGQHPDKYSVFAVSAHSRISELVEICKQFRPKVVVVPEQKIAELKTLFAQQNISDIDVLAGQEGLVDIASHTDVDIVMAAIVGAAGLLPTLAAVKAGKRVLLANKEALVMSGEIMMQAARDHQALLLPVDSEHNAIFQSLPHNYLQADRTGQPQLGVSKILLTASGGPFLNHSLEQLVHVTPQQACKHPNWSMGQKISVDSATLMNKGLELIEACHLFSISEHFVTVVVHPQSIIHSMVQYVDGSTLAQMGNPDMCTPIAHALAWPERLQTNVPALDLFEYSQLNFQAPDTQKFPALNLARQAMRAGGLAPTILNAANEIAVEAFLMERIGFTSIPQVVEHTLEKLENAAAESIECILDKDKVARSVAQQYISSIGG
The Km is the concentration of substrate that gives half-maximal velocity. The kcat is the maximal rate divided by the concentration of active sites. For B1, in “purified protein [1]”, the Michaelis constant (Km) was found to be 127.6 µM and the kcat worked out at 1.92 ± 0.03 s⁻¹.

B2: 1-deoxy-D-xylulose 5-phosphate reductoisomerase (KpIspC) (Klebsiella pneumoniae subsp. pneumoniae MGH 78578) (protein)
chain: MKQLTVLGSTGSIGCSTLDVVRHNPGRFSVAALVAGKNVDRMVEQCLEFTPRYAVMDDAQSAERLRTRLHEHGSRTEVLSGQQAAAEVAALDEVDQVMAAIVGAAGLVPTLAAIRAGKTVLLANKESLVTCGRLFMEAVQQSGARLLPVDSEHNAIFQSMPETIQQHLGYADLAQNGVSSILLTGSGGPFRETAVAELAAMTPDQACRHPNWSMGRKISVDSATMMNKGLEYIEARWLFNASAQQMEVLIHPQSVIHSMVRYQDGSVLAQLGEPDMRTPIAHTMGWPQRLNSGVKPLDFCQLSNLSFSAPDYTRYPCLKLAMDAFDVGQAATTTLNAANEESVAAFLHGDIRFTDIAAVNLAVLDKMDLQEPQSIDDVLVIDAEARAIAHQQLQRLVAQA
For the protein B2, in “purified protein [2]”, the Km amounted to 155.5 µM and the kcat is 2.21 ± 0.06 s⁻¹.

For the origin of these results see publication PMC8594541.
